Drawing on article PMC4021333, this text covers Ki for one substance.

The target in this experiment is Dipeptidyl aminopeptidase BII (DAP BII) from Pseudoxanthomonas mexicana WO24, wild type (Pseudoxanthomonas mexicana WO24) (UniProt V5YM14). Nature of the experiment: enzyme inhibition assay.
Chain of Dipeptidyl aminopeptidase BII (DAP BII) from Pseudoxanthomonas mexicana WO24, wild type (Pseudoxanthomonas mexicana WO24) (V5YM14 25-722): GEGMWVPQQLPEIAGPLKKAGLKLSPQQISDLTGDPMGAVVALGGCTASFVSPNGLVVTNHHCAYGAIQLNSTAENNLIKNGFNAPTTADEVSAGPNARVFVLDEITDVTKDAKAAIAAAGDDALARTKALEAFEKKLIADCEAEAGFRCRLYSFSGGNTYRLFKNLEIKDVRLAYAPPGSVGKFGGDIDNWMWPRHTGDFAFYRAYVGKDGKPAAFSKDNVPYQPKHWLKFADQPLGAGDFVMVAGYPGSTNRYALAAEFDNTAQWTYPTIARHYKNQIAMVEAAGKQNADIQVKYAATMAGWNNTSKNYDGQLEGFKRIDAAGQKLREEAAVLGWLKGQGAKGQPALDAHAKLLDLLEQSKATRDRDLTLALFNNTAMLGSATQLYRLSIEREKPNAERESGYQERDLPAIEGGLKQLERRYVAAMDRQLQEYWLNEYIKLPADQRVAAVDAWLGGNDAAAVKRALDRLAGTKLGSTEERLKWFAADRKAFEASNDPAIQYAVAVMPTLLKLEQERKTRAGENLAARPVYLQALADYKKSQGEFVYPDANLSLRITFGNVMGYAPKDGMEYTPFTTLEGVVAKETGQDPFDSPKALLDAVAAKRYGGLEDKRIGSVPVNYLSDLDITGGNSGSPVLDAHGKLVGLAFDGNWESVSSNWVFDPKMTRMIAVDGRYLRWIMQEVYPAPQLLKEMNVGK

Turning to dipeptide Val-Tyr, the Ki (commonly a dissociation constant, usually derived from enzyme kinetics or from competition with a known ligand) came to 410 µM.
